In US20220389118A1 (Chugai, published 2022):
Positions count from the first letter of the chain named. In names and notes the source's numbering stands. Read-outs that look alike come from different tables or passages of the source. Values belong to the binder of their own block, whether it stands above or below them.

Tests used:
[1] = target: T1, human FcγRIIa type R (R131) extracellular domain with C-terminal His tag (human, UniProt P12318 34-217); assay: SPR (Biacore), antibody captured, FcγR analyte
T1 construct: extracellular domain; also called FcγRIIaR; not shown: His tag at the C terminus
T1 sequence (looked up): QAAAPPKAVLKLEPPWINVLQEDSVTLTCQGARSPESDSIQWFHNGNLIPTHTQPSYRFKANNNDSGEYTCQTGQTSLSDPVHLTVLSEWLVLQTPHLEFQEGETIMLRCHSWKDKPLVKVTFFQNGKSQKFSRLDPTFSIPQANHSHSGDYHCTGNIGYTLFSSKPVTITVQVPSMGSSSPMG

[2] = target: T1, human FcγRIIa type R (R131) …; assay: SPR (Biacore), antibody captured, FcγR analyte; remark: listed apart in the source
[3] = target: T2, human FcγRIIb extracellular domain with C-terminal His tag (human, UniProt P31994 43-217); assay: SPR (Biacore), antibody captured, FcγR analyte
T2 construct: extracellular domain; not shown: His tag at the C terminus
T2 sequence (looked up): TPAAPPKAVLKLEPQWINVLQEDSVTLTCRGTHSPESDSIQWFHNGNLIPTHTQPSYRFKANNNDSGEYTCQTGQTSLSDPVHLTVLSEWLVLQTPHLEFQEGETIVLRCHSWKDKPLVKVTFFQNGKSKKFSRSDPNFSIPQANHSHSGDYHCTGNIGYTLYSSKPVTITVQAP

[4] = target: T3, human FcγRIIa type R extracellular domain with C-terminal His tag (human, UniProt P12318 34-217); assay: SPR, Ref. Ex. 25
T3 construct: extracellular domain; also called FcγRIIaR; FcγRIIa R
T3 sequence (looked up): T1 sequence (looked up)

[5] = target: T4, human FcγRIIb extracellular domain with C-terminal His tag (human, UniProt P31994 43-217); assay: SPR, Ref. Ex. 25
T4 construct: extracellular domain; for crystals expressed with kifunensine and trimmed with Endo F1; also called FcγRIIb extracellular region
T4 sequence (looked up): T2 sequence (looked up)

[6] = target: T5, human FcγRIIIa type V extracellular domain with C-terminal His tag (human, UniProt P08637 17-208); assay: SPR, Ref. Ex. 25
T5 construct: extracellular domain; also called FcγRIIIaV; FcγRIIIa V type
T5 sequence (P08637 17-208 F176V): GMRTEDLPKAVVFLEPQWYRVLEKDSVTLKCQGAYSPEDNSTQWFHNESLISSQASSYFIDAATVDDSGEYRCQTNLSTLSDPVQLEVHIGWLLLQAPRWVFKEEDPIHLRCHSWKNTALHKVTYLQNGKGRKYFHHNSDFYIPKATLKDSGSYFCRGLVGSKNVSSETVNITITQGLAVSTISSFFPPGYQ

[7] = target: T6, human FcγRIIa type H (allotype H131) extracellular domain with C-terminal His tag (human, UniProt P12318 34-217); assay: SPR (Biacore), antibody captured, FcγR analyte
T6 construct: extracellular domain; also called FcγRIIaH; FcγRIIa H type; not shown: His tag at the C terminus
T6 sequence (looked up): T1 sequence (looked up) with R134H

[8] = target: T7, human FcγRIa extracellular domain with C-terminal His tag (human, UniProt P12314 16-292); assay: SPR (Biacore), antibody captured, FcγR analyte
T7 construct: not shown: His tag at the C terminus
T7 sequence (P12314 16-292): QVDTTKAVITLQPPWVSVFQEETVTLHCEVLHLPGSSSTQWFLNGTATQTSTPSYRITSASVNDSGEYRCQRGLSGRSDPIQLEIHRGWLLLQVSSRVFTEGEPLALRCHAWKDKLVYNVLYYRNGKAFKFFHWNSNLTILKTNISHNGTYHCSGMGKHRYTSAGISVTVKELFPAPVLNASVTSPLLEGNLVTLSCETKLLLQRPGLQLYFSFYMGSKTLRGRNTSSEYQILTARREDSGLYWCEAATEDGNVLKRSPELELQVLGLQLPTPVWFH

[9] = target: T8, human FcγRIa extracellular domain with C-terminal His tag (human, UniProt P12314 16-292); assay: SPR (Biacore)
T8 construct: extracellular domain; also called FcgRIa
T8 sequence (P12314 16-292): as above

[10] = target: T9, human FcγRIIa type R extracellular domain with C-terminal His tag (human, UniProt P12318 34-217); assay: SPR (Biacore)
T9 construct: extracellular domain; also called FcγRIIaR; FcgRIIaR
T9 sequence (looked up): T1 sequence (looked up)

[11] = target: T10, human FcγRIIa type H extracellular domain with C-terminal His tag (human, UniProt P12318 34-217); assay: SPR (Biacore)
T10 construct: extracellular domain; also called FcγRIIaH; FcgRIIaH
T10 sequence (looked up): T1 sequence (looked up) with R134H

[12] = target: T11, human FcγRIIIa type V (allotype V158) extracellular domain with C-terminal His tag (human, UniProt P08637 17-208); assay: SPR (Biacore), antibody captured, FcγR analyte
T11 construct: extracellular domain; also called FcγRIIIaV; FcγRIIIa V type; not shown: His tag at the C terminus
T11 sequence (P08637 17-208 F176V): as the sequence (P08637 17-208 F176V) above

[13] = target: T12, human FcγRIa extracellular domain with C-terminal His tag (human, UniProt P12314 16-292); assay: SPR (Biacore), antibody captured, FcγR as analyte
T12 construct: also called FcgRIa
T12 sequence (P12314 16-292): as the sequence (P12314 16-292) above

[14] = target: T13, human FcγRIIa type R extracellular domain with C-terminal His tag (human, UniProt P12318 34-217); assay: SPR (Biacore), antibody captured, FcγR as analyte
T13 construct: extracellular domain; also called FcγRIIaR; FcgRIIaR
T13 sequence (looked up): T1 sequence (looked up)

[15] = target: T14, human FcγRIIb extracellular domain with C-terminal His tag (human, UniProt P31994 43-217); assay: SPR (Biacore), antibody captured, FcγR as analyte
T14 construct: extracellular domain; also called FcgRIIb
T14 sequence (looked up): T2 sequence (looked up)

[16] = target: T15, human FcγRIIb extracellular domain with C-terminal His tag (human, UniProt P31994 43-217); assay: SPR (Biacore)
T15 construct: extracellular domain; also called FcgRIIb
T15 sequence (looked up): T2 sequence (looked up)

Kd [1]: 0.8 µM
B1: IL6R-BP471/IL6R-L (antibody, human IgG1, kappa)
heavy: QVQLQESGPGLVKPSETLSLTCAVSGHSISHDHAWSWVRQPPGEGLEWIGFISYSGITNYNPSLQGRVTISRDNSKNTLYLQMNSLRAEDTAVYYCARSLARTTAMDYWGEGTLVTVSSASTKGPSVFPLAPSSKSTSGGTAALGCLVKDYFPEPVTVSWNSGALTSGVHTFPAVLQSSGLYSLSSVVTVPSSSLGTQTYICNVNHKPSNTKVDKKVEPKSCDKTHTCPPCPAPDLLGDDSVFLFPPKPKDTLMISRTPEVTCVVVDVSDEDGEVKFNWYVDGVEVHNAKTKPREEQDNSTYRVVSVLTVLHQDWLNGKEYKCKVSNKALPRSIEKTISKAKGQPREPQVYTLPPSRDELTKNQVSLTCLVKGFYPSDIAVEWESNGQPENNYKTTPPVLDSDGSFFLYSKLTVDKSRWQQGNVFSCSVMHEALHNHYTQESLSLSP
light: not shown
notes: P331S introduced into IL6R-BP230; copies: 2 + 2

Kd [2]: 0.7 µM
B2: IL6R-BP348/IL6R-L (antibody, human IgG1, kappa)
heavy: B1 heavy with S269A, D270E, D298Y, R332A, S333P
light: not shown
notes: S267A introduced into IL6R-BP267; copies: 2 + 2

Kd [2]: 2.1 µM
B3: IL6R-BP517/IL6R-L (antibody, human IgG1, kappa)
heavy: B1 heavy with D270E, E274I, D298Y, R332A, S333P
light: not shown
notes: E272I introduced into IL6R-BP267; copies: 2 + 2

Kd [3]: 0.06 µM
B4: IL6R-BP239/IL6R-L (antibody, human IgG1, kappa)
heavy: B1 heavy with L236Y, S269Q, K328A, S333P
light: not shown
notes: copies: 2 + 2

Kd [4]: 16 µM
Kd [5]: 2 µM
Kd [6]: 37 µM
B5: IL6R-PD042/IL6R-L (antibody, human IgG1, kappa)
heavy: QVQLQESGPGLVKPSETLSLTCAVSGHSISHDHAWSWVRQPPGEGLEWIGFISYSGITNYNPSLQGRVTISRDNSKNTLYLQMNSLRAEDTAVYYCARSLARTTAMDYWGEGTLVTVSSASTKGPSVFPLAPSSKSTSGGTAALGCLVKDYFPEPVTVSWNSGALTSGVHTFPAVLQSSGLYSLSSVVTVPSSSLGTQTYICNVNHKPSNTKVDKKVEPKSCDKTHTCPPCPAPEWLGGDSVFLFPPKPKDTLYISRTPEVTCVVVDVSHEDPEVKFNWYVDGVEVHNAKTKPREEQYNSTYRVVSVLTVLHQDWLNGKEYKCKVSNKALPAPIEKTISKAKGQPREPQVYTLPPSRDELTKNQVSLTCLVKGFYPSDIAVEWESNGQPENNYKTTPPVLDSDGSFFLYSKLTVDKSRWQQGNVFSCSVMHEALHYHYTQKSLSLSP
light: not shown
notes: also called P238D/L234W; L234W/P238D; copies: 2 + 2

Kd [7]: 20 µM
B6: IL6R-BP234/IL6R-L (antibody, human IgG1, kappa)
heavy: B1 heavy with L236Y, S269Q, K328D, R332K, S333P
light: not shown
notes: copies: 2 + 2

Kd [8]: 0.003 µM
Kd [7]: 6 µM
B7: IL6R-BP243/IL6R-L (antibody, human IgG1, kappa)
heavy: B1 heavy with L236Y, D298Y, S333P
light: not shown
notes: copies: 2 + 2

Kd [7]: 9 µM
B8: IL6R-BP241/IL6R-L (antibody, human IgG1, kappa)
heavy: B1 heavy with D298Y, K328D, S333P
light: not shown
notes: copies: 2 + 2

Kd [7]: 7 µM
B9: IL6R-BP238/IL6R-L (antibody, human IgG1, kappa)
heavy: B1 heavy with L236Y, K328A, S333P
light: not shown
notes: copies: 2 + 2

Kd [9]: 0.01 µM
B10: IL6R-BP182/IL6R-L (antibody, human IgG1, kappa)
heavy: B1 heavy with D239G, D270H, R332K, S333P
light: not shown
notes: EU numbering; alterations on IL6R-B3; copies: 2 + 2

Kd [10]: 8 µM
Kd [11]: 30 µM
B11: IL6R-BP132/IL6R-L (antibody, human IgG1, kappa)
heavy: B1 heavy with D239G, D270H, G273P, D298Y, K328A, R332K, S333P
light: not shown
notes: as for B10

Kd [12]: 60 µM
B12: IL6R-BP217/IL6R-L (antibody, human IgG1, kappa)
heavy: B1 heavy with D235E, S269Q, R332K, S333P
light: not shown
notes: copies: 2 + 2

Kd [13]: 0.003 µM
Kd [14]: 6.1 µM
KD(IIb) of parent polypeptide/KD(IIb) of altered polypeptide [15]: 4 fold vs IL6R-B3/IL6R-L
B13: IL6R-2B172/IL6R-L (antibody, human IgG1, kappa)
heavy: B5 heavy with W236L, Y254M, V325M, Y436N, K441E
light: not shown
notes: IgG1 type

Kd [9]: 0.009 µM
Kd [16]: 1 µM
B14: IL6R-2B261/IL6R-L (antibody, human IgG1, kappa)
heavy: B1 heavy with D239G, D270H, G273P, R332A, S333P
light: not shown
notes: as for B10

Kd [16]: 0.04 µM
B15: IL6R-BP151/IL6R-L (antibody, human IgG1, kappa)
heavy: B1 heavy with L236Y, D270H, G273P, D298Y, K328A, S333P
light: not shown
notes: as for B10
